The supplement of paper PMC9170038

System: MS2 coat protein
Assay: apparent KD of MS2 coat protein; designed switch direction (-1 OFF switch, 1 ON switch): -1; higher = weaker reporter binding
In short: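 Designed RNA switches with common flanks were transcribed on Illumina chips by stalled E. coli RNA polymerase and titrated with SNAP-549-labelled MS2 coat protein, from 0.7 or 1.5 nM doubling to 3 µM, in Tris-HCl pH 7.5 buffer with KCl, MgCl2, BSA, DTT, tRNA and Tween-20. Steps lasted 0.8–1.5 h (lowest) to 10–20 min (highest). Titrations ran without input, with 200 uM small-molecule ligand, or with an oligonucleotide input. Normalised cluster fluorescence was curve-fitted, and apparent KD is the per-design median over clusters.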

[1] = input ligand: microRNA oligo, concentration not stated
[2] = Eterna round: R95, input ligand: FMN 200 uM
[3] = Eterna round: R95, input ligand: microRNA oligo, concentration not stated
[4] = Eterna round: R95, input ligand: none

GAUUUAGAGCAGGAUAUCAUAGAAAUGUAUGAAUGAGAAGGGCUCACAUGAGGAUCACCCAUGUGGUCCUAGAU [JL Dibiri mod 20] (Eterna round: R96, puzzle: Exclusion 6)
apparent KD of MS2 coat protein [1]: 21.6 nM

GAUUUAGAGCAGGAUAUCAUAGAAAUGUAUGAAUGAGAAGGGCUCACAUGAGGAUCACCCAUGUGGUCCUAGAU [JL Dibiri mod 20] (puzzle: Exclusion 6)
apparent KD of MS2 coat protein [2]: 144 nM | apparent KD of MS2 coat protein [3]: 23.5 nM | apparent KD of MS2 coat protein [4]: 20.3 nM

GAUUUAGAGCAGGAUAUCAUAGAAUUAUAUGAAUGAGAAGGGCUCACAUGAGGAUCACCCAUGUGGUCCUAGAU [JL Dibiri mod 22] (Eterna round: R96, puzzle: Exclusion 6)
apparent KD of MS2 coat protein (input ligand: FMN 200 uM): 235 nM | apparent KD of MS2 coat protein [1]: 21.7 nM | apparent KD of MS2 coat protein (input ligand: none): 25.4 nM

GAUUUAGAGCAGGAUAUCAUAGAAUUAUAUGAAUGAGAAGGGCUCACAUGAGGAUCACCCAUGUGGUCCUAGAU [JL Dibiri mod 22] (puzzle: Exclusion 6)
apparent KD of MS2 coat protein [3]: 22.8 nM

GCAACUACGGAUCUCAUCAACAUGAGGAUCACCCAUGUAGAAUGCGUACAAGCUUUUUGUUCUGGCAUCCCAUAGUC [Eternabot (L2) Solution 35] (Eterna round: R97, puzzle: Sensor, turn-off variant 1)
apparent KD of MS2 coat protein (input ligand: FMN 200 uM): 63 nM | apparent KD of MS2 coat protein (input ligand: none): 65.3 nM

GCAAGAAUAGGAUAUACACCAUGCCAGCUUCUAUACAACGCACAUGAGGAUCACCCAUGUAGAAGGGUUCUCUG [Exclusion-2-#12] (Eterna round: R97, puzzle: Exclusion 2)
apparent KD of MS2 coat protein (input ligand: FMN 200 uM): 225 nM | apparent KD of MS2 coat protein (input ligand: none): 262 nM

GCAAGCUUAGGAUAUACAUGAGGAUCACCCAUGUCGUGAAUUUCGAUGCUUAAUGGCGGUAGAAGGAGGCUUGA [Eternabot (L2) Solution 12] (Eterna round: R97, puzzle: Exclusion 3)
apparent KD of MS2 coat protein (input ligand: FMN 200 uM): 31.2 nM | apparent KD of MS2 coat protein (input ligand: none): 18.8 nM

GCAAGCUUUUAGGUUUUCAACAUGAGGAUCACCCAUGUUCGUCUUGUGCUCGGGCUUGGGCGGUGUCCGGGUUUGGG [JL TOV1 3.75 sellena mod] (Eterna round: R97, puzzle: Sensor, turn-off variant 1)
apparent KD of MS2 coat protein (input ligand: FMN 200 uM): 40.4 nM | apparent KD of MS2 coat protein (input ligand: none): 43.7 nM

GCAAGCUUUUCGAUCCUCUACAUGAGGAUCACCCAUGUGCUCGAAUUGUUUGGUACUAUCACGAAAGUGAUAGUACA [Sensor, turn off variant 1 v.4] (Eterna round: R97, puzzle: Sensor, turn-off variant 1)
apparent KD of MS2 coat protein (input ligand: FMN 200 uM): 936 nM | apparent KD of MS2 coat protein (input ligand: none): 1150 nM

GCAAGCUUUUGCUCGUCUUACAUGAGGAUCACCCAUGUCGGGCCCGGCCGUCGCGGCCGGGCCCGCCGGGCGCCGGG [-41.9, -69.5 kcal, A 10%] (Eterna round: R97, puzzle: Sensor, turn-off variant 1)
apparent KD of MS2 coat protein (input ligand: FMN 200 uM): 53.5 nM | apparent KD of MS2 coat protein (input ligand: none): 64.1 nM

GCAAGCUUUUGCUCGUCUUACAUGAGGAUCACCCAUGUCGGGUGCUUGCUUCGGGCCCGGGCCUCCCGGGCCCGGGC [-43.3, -67 kcal, A 10%] (Eterna round: R97, puzzle: Sensor, turn-off variant 1)
apparent KD of MS2 coat protein (input ligand: FMN 200 uM): 61.8 nM | apparent KD of MS2 coat protein (input ligand: none): 66.3 nM

GCAAGUUUUUUGUUUUUUAACAUGAGGAUCACCCAUGUGCGGUUAUAGUGUGUGUGAUUAGGAUCUUGUGGUCUUAG [JR_SV3TOV1_Sub102] (puzzle: Sensor v3, turn-off variant 1)
apparent KD of MS2 coat protein [2]: 67.8 nM | apparent KD of MS2 coat protein [3]: 123 nM | apparent KD of MS2 coat protein [4]: 98.9 nM

GCACAUGCAGGAUAUGUAAAAUUUGACAUGAGGAUCACCCAUGUAGAUCCUGAAUUUCCUGCAGAAGGGCAUGUGC [Mat - Exclusion 5 - Eli Mod - D17] (Eterna round: R97, puzzle: Exclusion 5)
apparent KD of MS2 coat protein (input ligand: FMN 200 uM): 345 nM | apparent KD of MS2 coat protein (input ligand: none): 98.8 nM

GCACGAAGUGUAGGAUAUCUGUGCGAUUAGCUCAGAGAAGGACACAUGAGGAUCACCCAUGUUUUCCACGGAUAGCAAACGUGC [Eli exng1 - 059] (Eterna round: R96, puzzle: Exclusion NG 1)
apparent KD of MS2 coat protein (input ligand: FMN 200 uM): 21 nM | apparent KD of MS2 coat protein [1]: 14.4 nM | apparent KD of MS2 coat protein (input ligand: none): 19.6 nM
